From article PMC10320493 come the findings set out here.

The target of experiment [1] is human δ-opioid receptor (pcDNA3.1-human DOR) (human) (UniProt P41143).
The target in experiment [2] is human μ-opioid receptor (pcDNA3.1-human MOR) (human) (UniProt P35372).
Experiment [3] shares this target. This is another data set of the same source.
The target is the same in experiment [4]. Put plainly: radioligand binding.

As a reminder, the Kd is the concentration at which binding is half-saturated. What is called pKd is the Kd on a negative log10 scale, so that one unit is a factor of ten. The low end stands for a high Kd, the high end for a low Kd.

In the case of DADLE (peptide), the Gi/o-mediated cAMP inhibition (GloSensor, HEKT cells), pEC50 in experiment [1] worked out at 9.69.
In experiment [2], “[D-Ala2, N-MePhe4, Gly-ol]-enkephalin (peptide)” registered a Gi/o-mediated cAMP inhibition (GloSensor, HEKT cells), pEC50 of 8.65. This substance had a maximal net BRET in the G protein (GoA) dissociation assay in experiment [3] of 0.15. Also, in experiment [4], the Kd stood at 4.37 nM and the negative-log Kd (pKd) was determined as 8.36.
